Measured values reported in the domain aggregation screens of Martell et al. (2025).

assay: soluble fraction after stress (log2 fold change); higher = more stays soluble; pooled small domains, quantitative proteomics; conditions: stress: 50 degC
Outline: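 Each library was heated to 50°C as a stress step. The libraries, made up of small protein domains, were pooled and analysed at high throughput by quantitative proteomics. The reported value is the base-two logarithm of the fold change in each protein's soluble amount after stress, taken as a measure of aggregation propensity. The higher the value, the more protein stays in solution.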

Compared with “HMRLANGIGTVYKLSGNRRNPYIVRKTTGWEIDEESGKAKQKYITIGYAPTRAKGLEMLMDYNKNP”, “HMYELDIYPNPAIDKINVLLPSSTTLPVKVEIYDIMGKKVNSLLTTKKAFTIETDQFEKGIYFVKA” is higher in “soluble fraction (log2)” value: -0.428 for the first, 0.0213 for the second.

Going from “HMNERLKQLRLSLNLNQEEFGKWLGISKSGVSDIESGRRKVTEQHIIMLSNHNISEKWLRTGEGEMFV” to “HMRAAEPTTDAQRDRRRRIVLTAMTMLQERGYDEIQMRDVAQQAGVALGTLYRYFPSKEQLFAHVLVE”, the “soluble fraction (log2)” value falls from -0.0803 to -0.599.

Going from “HMDLANLQNGQTLPLQRDVEVISIPFGKTISLSEDSVVSIMQAKGSSVSVAYEGRLYLIEGSNLDALGLEP” to “HMRGRFGNAAPARNLGDHPQGGAINVKAGRYGPYVSWGKVNATLPKDSDPEKVTLEEAVALIAAKQSGQG”, the “soluble fraction (log2)” value rises from -0.736 to -0.103.

Compared with “HMTNIELYQRLLNLGFTPAQAKILLVQYDETRLTDNLNYVDFKKQQGNIENLPAYTTTIIKKDVRL”, “HMEFNDLNDDEKAILHIMYNTGEKMTTALAARITNRGRNFASKLLKSLVKKEILEWHGTSKQDRNQYYTLA” is higher in “soluble fraction (log2)” value: -0.389 for the first, -0.0326 for the second.

First: HMQDVWEPFLAKGYVFADGMLTKLIHKRGDVYKTQEIGSDKIIYVIKDGDTFAHGKTVKAAMLDLAFKKS
Second: HMTIYPFNPNYLKDYQAYRVGLSLKEIDALLDFRSSGQWINSAEDFQRITGVSDSVLEQLIPYFKFS
The “soluble fraction (log2)” value of the first is higher: -1.29 for the first, -2.49 for the second.

Going from “HMNTVAGAISDLSFKVRGSEDIEKLNRLKALSIQAKLDVQGQEEAERLISELEAKYGSLGMTVDKVSGKIA” to “HMTVLPTEQDAKALVGLGEEEAAKIVEGNGWTYRIGSRDGEQFMLTEDFVTSRLTLGIEKAIVMTATI”, the “soluble fraction (log2)” value falls from 0.158 to -0.915.

Going from “HMDAPLIIAETRVDVPDATVSDAVMMLDLRNTNALLFKNSGSGVLNMVYRRGDGTIGWGEPQ” to “HMGGAYATVKLSSSSSQLNVRASASTASRVVARLSHGFRVEVLGVSGDWVKIRALGVEGYVARAYLALEGE”, the “soluble fraction (log2)” value falls from -0.0172 to -0.374.

“HMNMEYQKAINHIVQMVKDGQLIVGSKIPSERDLSESLGIGRNSTREAISILRGMGLVESRHGSGNYIAKD” and “HMRQSSLRTRELLIDAARQLFARFGVEKTTMNDIAEASKRGRRTVYMYFNSKSDVFYAVVGRE” are within 0.2 log units of each other in “soluble fraction (log2)” value: -0.148 for the first, -0.212 for the second.

Compared with “HMEIVSTEEKIKRAAEQVFLLRGLEGARMQEIADVAGINKAMLHYYFRNKETLFDVILSEKL”, “HMNTRWDDAAQTWLRKVIEQQPVLVQISAAKRLRDQAEQRAREAGEEVVTEQHVKRAGLELGFGEP” is higher in “soluble fraction (log2)” value: -1.51 for the first, 0.0799 for the second.

Going from “HMDQSIDADIINLNFSKNIIKIEENVYYKNNNAKVNADKIEINIETKKLKISMNEQEDEVEIFAK” to “HMHPTEKNLTSLLADGSFYMNQNKLETAYDTFTKTIELDPSWAEAWNKRATVLYLMGKYELSQADIDQV”, the “soluble fraction (log2)” value falls from 0.283 to -0.0645.

Going from “HMRPPLEWGTHGEITTRTVASGYVRASARVRLWDGELQRMTATASTASDARASLQHRIAERLRFSEL” to “HMDTVIAEVTASILNLRRSAGTSSDIIGKLNKGEKVSIIGGSGNWKNVRTSGGITGWVYHEYLSTY”, the “soluble fraction (log2)” value rises from -1.46 to -0.623.

First: HMNTGLSEREHEIAQLVLQGRTYAEIGAELFISPRTAEHHIGQIRRRLAATSRSDLLAKLRVAMNTTEGAG
Second: HMYTVQQLARLAGITPRTLRHYDAIGLLKPTRVGENGYRYYGSEALLRLQSILLYRELDMPLEDIRRVLDS
The “soluble fraction (log2)” value of the first is higher: -1.27 for the first, -3.15 for the second.

First: HMTALTTEDLERRFYAKTYEGESAQKRLARLEISVFGELRQGRPESDRLHDLNNAVLEKERAALNAGAVG
Second: HMYMWQVEDLLRANELDIENIKKTIIDHYQLDDAQKSELTRWYEDLINMMRLEGVTKEGHLQINK
The “soluble fraction (log2)” value of the first is higher: 0.123 for the first, -1.41 for the second.

Compared with “HMKREELTQQTKQNLREAFWSLYIQKPIEKITVKEITDIAGYNRGTFYLYYKDTYDLLAKIE”, “HMSHSVLIDISQLRIGMYIQLDVGWMHHPFPVSSFRVASLEQIEALRTLNLAQVRYFPAKSDPV” is lower in “soluble fraction (log2)” value: -0.149 for the first, -3.6 for the second.

“HMPTPLTPREHEIANLIAQGLSNREIADELVISPATAARHVANILAKLGFSSRTQVASWATRHD” and “HMTSTSVKYVNSSSGLNVRKGPSTSYDKVTTLVNGTKVTVISTNNGWSKITSGSITGYVSSQYLSSSS” are within 0.2 log units of each other in “soluble fraction (log2)” value: -0.179 for the first, -0.147 for the second.

“HMETITDRLNRRSLELNVSQADIIRTTGAGRGTVSGWFSGANAPSAKYLESLAVALKTSTTWLLSGKD” and “HMVGDMLTQKDSEGLTAYLYQQGIISQREMLLLNGILKDRVLTGMEKGQRDSVRASMVQHLLAMLNMM” are within 0.2 log units of each other in “soluble fraction (log2)” value: -0.741 for the first, -0.848 for the second.

“HMNYLDVNIPVTSAVWMGKQLPEMGTLIYLTPDKDVEGMLFIKQATKDKPDGEYIEAKVLGYKEGRVLFDF” and “HMAEQVLHQKLAARRKELNSLVAQVARVRGIPHSHVHSGLRREAGGPPLAQATTDQVEARISLARKWLRA” are within 0.2 log units of each other in “soluble fraction (log2)” value: -0.547 for the first, -0.728 for the second.

Compared with “HMSQLSDEQELRDIARGIIEGNPNEAEKYRAGRTGLLGFFVGKLMAETEGKANPRLASRILKELLE”, “HMSKKLLVLQTSDDAKAKDVLSQNGYQLDDGDKLSIIETEQTKMADVIKLLSDNAIDIEDVQHVH” is higher in “soluble fraction (log2)” value: -0.0477 for the first, 0.217 for the second.

Compared with “HMTLAAATESREYLADLARRLDAADHGDKTRIKAEAAGLLGWSMATLHARLARDVGWTSGRK”, “HMLEQEQFESKLLKAINNINETQRIAFLMHRIDGKKYAEIASELNISVKAVEKRIHLALIELKKEIENF” is lower in “soluble fraction (log2)” value: -0.0944 for the first, -0.871 for the second.

First: HMIQIQDIAFSEFLQELDKGNIVEVNIKGDLINGDLINGKKFKTVAPYDPNLVEKLSKQNVRINVEPIN
Second: HMGLNNVSDILRLDFNSFKKKFDKLPSGYKNSVVEQAALMIKSGELDSIKIKDYIEKSMGIELDI
The “soluble fraction (log2)” value of the first is higher: 0.125 for the first, -0.27 for the second.

“HMRQIMIIVLKSTATKEDSLLFKNKLEQEYGVKVNEWTGVESTVLGLIGDTTKIDIDYISAQDIVESVKRV” and “HMSTTSYTQFMEDAKAGKIARVDIKGREITVTPTEGSRYVITSPGDLWMVDDLRKDGVQVYGPP” are within 0.2 log units of each other in “soluble fraction (log2)” value: 0.252 for the first, 0.101 for the second.

Going from “HMTVKKLTINEDNSGRRIDNYLLSIFNSLPRSKIYNIIRKGEVRVNSSRIKPNYRLEQGDLVRIPPNLEFT” to “HMEETGFYIKLQDQEVVIFHNDQVTPYEYTGIREEVLPESELEKLREGFFVEDEKELYSVLENLS”, the “soluble fraction (log2)” value falls from 0.0953 to -0.142.

“HMTHAISKTYAVTGEQLKNGFTLTHTFANGSTRRVDVYPGSRSGKVIAVRNTTDDTTEWIRIVEG” and “HMLPAGAAAPLEDGSAPEGYTVKGNADSGLYHEPDGRWYDATVAEFWFKTAADAEAAGFRKAGS” are within 0.2 log units of each other in “soluble fraction (log2)” value: 0.0444 for the first, 0.121 for the second.

“HMVDALYGQGARVMRDFSEGSGIVKLDNGETWTGRLSPAASGASLYVGDRVIVTRIDGAIAEVTPP” and “HMPKLVGEVMQTLDALRREKGLSLLLVEQNARAALGVVDRVYVLERGRVVFEGSAKEAMEDQDVMEFYLG” are within 0.2 log units of each other in “soluble fraction (log2)” value: -0.0539 for the first, 0.0385 for the second.

Going from “HMNNTIKFSVDSQNSGKRLDIFLTENIKNYTRSFLKKLIENRQVKLNNNFIISPSERVKFKDQININILQ” to “HMNTYEIIGGDNRARGPVTGEELSQWIREGRASGHTMARVSDGEHWQPLGSFPEFVGPLQGLPW”, the “soluble fraction (log2)” value rises from -1.17 to 0.127.

First: HMKSIETVAELVAELKKLNPNAKISNIDGTYTLEEDINTITLPKDFKYDNNLGINNKIDDFTPYISLDVKA
Second: HMWDEMKDQKLVEALLLLREDERKLIYQHVFEERTFDDISRINGLPPYKVKGIYYYAIRKIRKWMG
The “soluble fraction (log2)” value of the first is higher: 0.41 for the first, -1.51 for the second.

First: HMVKSYEVPDVSNLTVLEAEAKLQEMGFEIDEEQKEISSSDIESGRVVKTSPQAGSKRKEGAIITLYVSSG
Second: HMDEKLAHKLVSDFRQAAASLERFPFRNPVLRSEVFTVEKYRKLVFDKYHILLYQVKDQVVYVEYVIDGRQ
The “soluble fraction (log2)” value of the first is higher: 0.163 for the first, -0.75 for the second.

First: HMDENILKTRIEDLDLSVRTIKALTGASIRTVSGLARKKESDLLEISGLGDKGIQEIKRALGSLGITL
Second: HMSEVTYQETLRLLRRAIDVLPQQSRQIILLGLSGKNNNEVAEMLGISVNTVKTLKKGAYKSLRNSL
The “soluble fraction (log2)” value of the first is higher: 0.0868 for the first, -1.66 for the second.

First: HMGVISRVITFWQNGFTVDDGPLRAFDDPANMAFMESIGRGEAPAELAPKTRTQRVNINLVQRHEPYSAPK
Second: HMGAKLTTAQGGTLKVLVKGKKTHTPTIELRDKDPDFPNAKVVQPDINKGNKQIAHGINGVL
The “soluble fraction (log2)” value of the first is lower: -0.0726 for the first, 0.514 for the second.

First: HMIVMPELRGKDLKEAERLLSSHNLRYELVDSVYDKSLAPGVVVEMVPQSGNTVKPGRIIFLSINA
Second: HMRDAKSQLQEALQKSGRLPEYELVSVEGPPHAPVFTYRVRIDGAVVGEGQGASKQAAQQAAAQSALKSG
The “soluble fraction (log2)” value of the first is lower: -0.878 for the first, 0.145 for the second.

First: HMDVLNPGDKAVTTASWLNFRTGPGMQNKVASVLARNTTVNIIEKSNEWYKVSLANGSTGYVHGMYLSKIT
Second: HMHEIVDTVLQVKQSVEADPLIAPALKNKEIVFQLNAKGVFQFKNAVIQVASALGISKNTVYMHLRNNK
The “soluble fraction (log2)” value of the first is higher: -0.0937 for the first, -1.89 for the second.

First: HMQLDLTSTLDHMYKQMRNDHPRALLMAVEKEMVLRALKETDGNQLRASDILGISRSTLRKRIEEFDINS
Second: HMINEEELLKIENIKRKYPDSKAALMPVLYFFQEKYGFISDDSIKEISQLLNISEVDIKGVVSFYEMFHEK
The “soluble fraction (log2)” value of the first is lower: -1.09 for the first, -0.59 for the second.

“HMNPNSIDEKLKLLSNREKEVAILVLKKLSYFEISEQLNITIRTVKAHTKNIYEKFNVSNRLAFLLLFN” and “HMRHTRQRQAVLDALVRSGQALSPQDLLGQAKSAVPSLNLSTVYRQIKGLQDAGQIVRVELPGQPPRFEM” are within 0.2 log units of each other in “soluble fraction (log2)” value: -0.225 for the first, -0.107 for the second.

Compared with “HMEIGELITLYRKQAGLTIDELSEKANVPKGTLNKIIGGITKAPTLETMRSIAYALGKKLADFDN”, “HMFKLPRTIGTFEDSDVVIGAGKFGPYIMHNKKFVSLPKSEDPLTIGLERAIELISAKREQEKQRH” is higher in “soluble fraction (log2)” value: -0.34 for the first, 0.284 for the second.

Going from “HMSDLTEVIVKFSGDIQPIRQDLDAQVEILLKGYAIITLSPNKIGRLYSYPQIESIEIPKNLYI” to “HMVTFDEISQSLVRDVAARRSLSVQTLHAMVDRYNAGSSINAVANQYGIDRLKLREILIELGVHVAT”, the “soluble fraction (log2)” value rises from -1.26 to 0.159.

Compared with “HMGRRRAAPQEPLRQFPASPVTGQPIKLLLGQYGPYVTDGTTNASLPKGSSPDELTFEQATQLLAERALRG”, “HMNIQKYFAGREQFIELLEAVGIRTLEQFASADPSTVLPELHQAKRMLKLQTEIPSAPVFREWVNQALS” is lower in “soluble fraction (log2)” value: 0.109 for the first, -0.237 for the second.

Compared with “HMIVNTTRAPYLLGETEQDAMRLARQAGLVPEIVRQSSAEPAGTVILQSHDFDYRMRRGSVILITVSTGPL”, “HMNDRLAGMEGQRGEAATNFDQGEGKVKVGDTVWLAKQSDSTVIVEGDQIVVTGSENGLLKVRL” is higher in “soluble fraction (log2)” value: -2.15 for the first, -0.165 for the second.

In the case of “HMAVFRVGDKVKSMEGMIGEVRGINGRLIQVATPYGLRDYYPHQITKVENPLAAAPAPLNEEA”, the “soluble fraction (log2)” value was 0.269.
